Experimental data taken from article PMC7774594, “Functional Characterization of Primordial Protein Repair Enzyme M38 Metallo-Peptidase From Fervidobacterium islandicum AW-1” (Frontiers in Molecular Biosciences, 2020).
Each block holds one molecule with its values, some of them ahead of it.

How the values were obtained:
[1] = target: T1, FiBAP (M38 β-aspartyl peptidase from Fervidobacterium islandicum AW-1) (Fervidobacterium islandicum, UniProt A0AAI8CML9); test: enzyme activity inhibition (data not shown); type: biochemical; details: substrate analog inhibitor, conditions not given
T1 construct: gene iadA; full length (M1-E386), 6xHis tag (N-terminal per methods with pET-28a, C-terminal per results), E. coli BL21(DE3); 42 kDa monomer, 318 kDa octamer (tetramer of dimers); binuclear Zn
T1 sequence (A0AAI8CML9 1-387): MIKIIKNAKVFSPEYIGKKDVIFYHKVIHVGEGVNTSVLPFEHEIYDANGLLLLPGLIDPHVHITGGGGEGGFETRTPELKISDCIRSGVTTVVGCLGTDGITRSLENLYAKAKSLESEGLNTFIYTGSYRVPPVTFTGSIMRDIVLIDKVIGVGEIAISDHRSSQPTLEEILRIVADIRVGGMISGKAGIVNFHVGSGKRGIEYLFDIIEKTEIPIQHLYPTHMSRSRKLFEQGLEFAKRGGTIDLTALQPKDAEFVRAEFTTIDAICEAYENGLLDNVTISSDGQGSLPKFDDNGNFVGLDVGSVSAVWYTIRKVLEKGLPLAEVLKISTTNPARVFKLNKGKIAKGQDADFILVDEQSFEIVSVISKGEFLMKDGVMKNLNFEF

[2] = target: T1, FiBAP (M38 β-aspartyl peptidase from Fervidobacterium islandicum AW-1); test: X-ray crystal structure, […] Å; type: binding; details: co-crystallised with Cbz-β-DL, but only the β-DL moiety has density; wild type; binuclear Zn active site; pH about 5
[3] = target: M38 β-aspartyl peptidase from Fervidobacterium islandicum AW-1 (FiBAP) (Fervidobacterium islandicum AW-1); test: SEC; Superdex 200 10/300 GL, 25 mM Tris-HCl pH 7.5, 150 mM NaCl; calibrated with blue dextran, thyroglobulin, ferritin, aldolase, conalbumin, ovalbumin; apparent Mr 318,000 against 42,000 by SDS-PAGE; octamer
[4] = target: M38 β-aspartyl peptidase from Fervidobacterium islandicum AW-1 (FiBAP) (Fervidobacterium islandicum AW-1); test: crystal structure; hanging drop vapor diffusion at 20°C; ligand-free (I422, one subunit in the asymmetric unit, 2.6 Å) and with Cbz-β-Asp-Leu (P22(1)2, four subunits, 2.7 Å); octamer (tetramer of dimers) from symmetry-related molecule analysis
[5] = substrate: CC(C)C[C@H](NC(=O)C[C@H](N)C(=O)O)C(=O)O; test: ninhydrin assay of free amino acids, Michaelis-Menten fit; type: biochemical, Fervidobacterium islandicum; details: 50 mM HEPES pH 8.0, 1 mM CoCl2, 80°C, 10 min, 1–32 mM substrate
Text: ninhydrin assay of free amino acids, Michaelis-Menten fit on FiBAP ([…] β-aspartyl peptidase from Fervidobacterium islandicum AW-1) | steady-state kinetics analysis of FiBAP with β-DL as substrate, yielding Km and Vmax values

Molecule: CC(C)C[C@H](NC(=O)C[C@H](NC(=O)OCc1ccccc1)C(=O)O)C(=O)O [N-carbobenzoxy-β-Asp-Leu]
enzyme activity inhibition (data not shown) [1]: our substrate analog (Cbz-β-DL) containing Cbz inhibited enzyme activity in our enzyme assays

Molecule: CC(C)C[C@H](NC(=O)C[C@H](N)C(=O)O)C(=O)O [β-Asp-Leu]
X-ray crystal structure, 2.7 Å [2]: included distinct electron density only for the β-DL moiety lacking carbamazepine (Cbz)

stoichiometry N [3]: 8 | stoichiometry N [4]: 8
Molecule: M38 β-aspartyl peptidase from Fervidobacterium islandicum AW-1 (FiBAP) (enzyme)

B1: FiBAP (M38 β-aspartyl peptidase from Fervidobacterium islandicum AW-1) (Fervidobacterium islandicum) (protein)
chain: MIKIIKNAKVFSPEYIGKKDVIFYHKVIHVGEGVNTSVLPFEHEIYDANGLLLLPGLIDPHVHITGGGGEGGFETRTPELKISDCIRSGVTTVVGCLGTDGITRSLENLYAKAKSLESEGLNTFIYTGSYRVPPVTFTGSIMRDIVLIDKVIGVGEIAISDHRSSQPTLEEILRIVADIRVGGMISGKAGIVNFHVGSGKRGIEYLFDIIEKTEIPIQHLYPTHMSRSRKLFEQGLEFAKRGGTIDLTALQPKDAEFVRAEFTTIDAICEAYENGLLDNVTISSDGQGSLPKFDDNGNFVGLDVGSVSAVWYTIRKVLEKGLPLAEVLKISTTNPARVFKLNKGKIAKGQDADFILVDEQSFEIVSVISKGEFLMKDGVMKNLNFEF
notes: full length (M1-E386), 6xHis tag (N-terminal per methods with pET-28a, C-terminal per results), E. coli BL21(DE3); 42 kDa monomer, 318 kDa octamer (tetramer of dimers); binuclear Zn
Km [5]: 5.23 ± 1.59 mg/mL
